In patent US9650419B2, “Biocompatible protein, biocompatible protein gel and biocompatible conducting protein gel comprising the protein and method for preparing the same” (Research & Business Foundation SUNGKYUNKWAN UNIVERSITY, priority 2014, dated 2017):

Target: T1, trypsin (Bos taurus, UniProt P00760)
T1 construct: gene PRSS1
T1 sequence (P00760 24-246): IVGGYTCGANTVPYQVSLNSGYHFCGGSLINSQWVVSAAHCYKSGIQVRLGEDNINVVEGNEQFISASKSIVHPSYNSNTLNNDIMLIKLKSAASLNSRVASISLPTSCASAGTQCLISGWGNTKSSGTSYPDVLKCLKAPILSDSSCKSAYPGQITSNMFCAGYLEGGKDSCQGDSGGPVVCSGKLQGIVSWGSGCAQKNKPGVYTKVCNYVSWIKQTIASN
Assay: proteolytic susceptibility with trypsin (HPLC, MALDI-TOF)
Type: in vitro ADME
Settings: 100 μM peptide stock, 200 μM protease stock, TBS buffer pH 7.5, one, seven, thirty days at room temperature
Protocol: In order to confirm whether β-peptide is degraded by a protease, proteolytic susceptibility of β-VhexS was measured with trypsin, chymotrypsin, and subtilisin which cleave protein nonspecifically. Peptide and pretease stock solution was prepared by desolving 100 μM of beta-VhexS and 200 μM of each pretease in TBS buffer at pH 7.5. 10 μL of stock solution. 40 μL of peptide stock solution and 10 μL of protease stock solution were transferred into micro tube and incubated for one, seven, thirty days at room temperature. The reaction was quenched with adding 100 μL of 1% TFA solution. As a control sample, 40 μL of peptide stock solution without protease was also treated with 1% TFA solution.
Degree of peptide degradation was analyzed with high performance liquid chromatography using C3 column for Agilent analysis. […] The HPLC peaks of both standard sample and enzyme treated peptide sample were compared, and the peaks appeared only for enzyme treated sample were analyzed with MALDI-TOF. The results confirmed that β-peptide was not degraded by enzymes.

In the case of “Ac-KVK EVF FVK EVF FVK EVY-NH2 (Ac-KVKEVFFVKEVFFVKEVY-NH2; also: beta-amino acids, places not given here) [β-peptide]”, the “degradation of peptide by protease” value is reported as “not degraded”.
